In the nanobody polyreactivity screen of Harvey et al. (2022):

Assay: yeast display, Sf9 membrane polyspecificity reagent, FACS + sequencing; frameworks hold sequencing errors
Outline: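 Nanobodies from a synthetic yeast display library (Saccharomyces cerevisiae BJ5465), induced 36–48 hours with galactose, were stained 1 hour at 4 °C with 10% biotinylated, detergent-solubilized Sf9 membrane reagent, enriched on streptavidin microbeads, then FACS-sorted. Anti-HA (expression) and streptavidin (reagent binding) fluorescence set low and high (top ~1%) gates. Polyreactivity labels come from the gate of origin. Genes were colony-PCR amplified, MiSeq 2 × 250 sequenced and filtered by CDR length.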

In the case of “QVQLVQSGAGLVQARGSLRLSCAASGSTFRRNVMGWYRQAPGTERELVAAISWSGTSTNYADSVKWRFTISRDNAKNTVYLQMNSLKPEDTAVYYCATQSLYYRWGLDYWGQGTQVTVSS”, the “polyreactivity (PSR sort gate)” value was “high polyreactivity”.

In the case of “QVQLVQSGGGLVHAGGSLRLSCAASGGTFQRYVMGWYRQAPGKERELVAAISRSGSTYADSVKGRFTISRDNAKNTVYLEMNSLKPEDTAVYYCNTVYPGRDYCKFGYWGQGTQVTVSS”, the “polyreactivity (PSR sort gate)” value was “high polyreactivity”.

For “QVQLVQSGGGLVQAGASLRLSCAASGSTFWKYAMGWYRQAPGQERELVASIRSGGSTYYADSVKGRFTISRDNAKNTVYLQMNSLIPEDTAVYYCAAVTHGRYDWVQGTQVTVSS”, the “polyreactivity (PSR sort gate)” value was “high polyreactivity”.

For “QVQLVQSGGGLVQAGGILRLSCAASGRTFSTNAMGRYIQAPGKERQLVAAITYGSSSTYYADSVKGRFTISRDNAKNTVYFKMNCLKPEDTAVYDCAAGGFFTHRRTYGYWGQGTQVTVSS”, the “polyreactivity (PSR sort gate)” value was “high polyreactivity”.

In the case of “QVQLVQSGGGLVQAGGSLRLSCAASGFIFDTYTMGWYRQAPGKERQLVAAISRSGASTYYADSVKGRFTISRDNAKNTVYLQMNSLKPEDTAVYYCATVYYPSYRGGYDYWGQGTQVTVSS”, the “polyreactivity (PSR sort gate)” value was “high polyreactivity”.

In the case of “QVQLVQSGGGLVQAGGSLRLSCAASGITFEYNTMGWYRQAPGKERELVAAITQGGGTTNYADSVKGRFTISRDNAKNTVYLQMNSLKPEDTAVYYCAAFVGYLLLYYPTYYYWGQGTEVTVSS”, the “polyreactivity (PSR sort gate)” value was “low polyreactivity”.

With “QVQLVQSGGGLVQAGGSLRLSCAASGLIFRYYTMGWYRQAPGKERELVAAISSGGSTRYADSVKGRFTISRDNAKNTVYLQMNSLKPEDTAVYYCAAKLYYYVQGRYNYWGQGTQVTVSS” the “polyreactivity (PSR sort gate)” value was “high polyreactivity”.

With “QVQLVQSGGGLVQAGGSLRLSCAASGLIFTTNPMGWYRQAPGKERQFVAAISPSGGSTYYADSVKGRFTISRDNAKNTVYLQMNCLKPEDTAVYSCGARYSPVWHKYYYWGQGTQVTVSS” the “polyreactivity (PSR sort gate)” value was “high polyreactivity”.

For “QVQLVQSGGGLVQAGGSLRLSCAASGRIFGLNTMGWYRQAPGKERELVAAITSSAGSTYYADSVKGRFPISRDNAKNTVSLQMNSLKPEDTAVYYCAARVSYLGSFTSQRYYYWGQGTQVTVSS”, the “polyreactivity (PSR sort gate)” value was “high polyreactivity”.

With “QVQLVQSGGGLVQAGGSLRLSCAASGRTFYYYPMGWYRPAPGKERELVAAIRWRGGRTYADSVKGRFTISRDNAKNTVYLQMNSLKPEDTAVYYCAVESFYRHASLYDYWGQGTQVTVSS” the “polyreactivity (PSR sort gate)” value was “high polyreactivity”.

With “QVQLVQSGGGLVQAGGSLRLSCAASGSIFGYYAKGWNRQAPGKERQLVAAIDSRGGSTYYADSVKGRFTISRDNEKNTVYLQMNSLKTEDTAVYYCAARLRYPRRGQGDNYRGQGTQVTVSS” the “polyreactivity (PSR sort gate)” value was “low polyreactivity”.

In the case of “QVQLVQSGGGLVQAGGSLRLSCAASGSTFLSKAMGWYRQAPWKERQLVAAITTSGTSTFYADSVKGRFTISRDNAKNTVYLQMNSLKPADTAVYCAKDYLPYLHFVAPSTGDYDYWGQGTQVTVSS”, the “polyreactivity (PSR sort gate)” value was “low polyreactivity”.

In the case of “QVQLVQSGGGLVQAGGSLRLSCAASGSTFRIYAMGWYRQAPGKEREFVAAISDRGGRTYYADSVKGRFTISRDNAKNTVYLQMNSLKPEDTAVYYCAAVKLLSSAPGDDCQMNYWGQGTQVTVSS”, the “polyreactivity (PSR sort gate)” value was “low polyreactivity”.

With “QVQLVQSGGGLVQAGGSLRLSCAASGSTFYQYAMGWYRQSPGKERELVAAISRSGSTNYADSVKGRFTHSRDNAQNTVYLQMNSMKPEDSAVYYCAARLGTRQYKMDYWGQGTQVTVSS” the “polyreactivity (PSR sort gate)” value was “high polyreactivity”.

In the case of “QVQLVQSGGGLVQAGGSLRLSCAASGTTFRIYAMGWYRQAPGKEREFVAAISDRGGRTYYADSVKGRFTISRDNAKNTVYLQMNSLKPEDTAVYYCAAVKLLSSAPGDDGKMNYWGQGTQVTVSS”, the “polyreactivity (PSR sort gate)” value was “low polyreactivity”.

For “QVQLVQSGGGLVQAGGSLRLSYAASGRIFSPNAMGWYRQAPGKERELVAAISYRGANTYYADSVKGRFTISRDNAKNTVDLQMHSLKPEDTAVYYCATRSTHYWGQGTQVTVSS”, the “polyreactivity (PSR sort gate)” value was “high polyreactivity”.

With “QVQLVQSGGGLVQAGGSLRVSSAASGNIFAYYAKGWYSQAPGKERELVAAITDSGGNTFYADSVKGRFTISRDQAKNTVYLQMNSLKPEDTAVYYCAADTFYSYYDMDYWGQGTQVTVSS” the “polyreactivity (PSR sort gate)” value was “low polyreactivity”.

With “QVQLVQSGGGLVQAGVSLRLSCAASGLIIGVYAMGWYRQAPGKERELVAAITDGGSTYYADSVKGRFTISRDNAKNTVYLQMHSLKPEDTAVYYCNAEFRSSDYDYWGQGTQVTVSS” the “polyreactivity (PSR sort gate)” value was “low polyreactivity”.

With “QVQLVQSRRGLVQAGCSLRLSCAASGRTFVIYAMGWYRQAPGKERELVAAISKGGGSTYYADSVKGRFTISRDNAKNTVYLQMNSLKPEDTAVYYCAVEASRAGAWYEYWGQGTQVTVSS” the “polyreactivity (PSR sort gate)” value was “high polyreactivity”.

In the case of “QVQLVQSVGGLVQAGGSLRLSCAASGSIFIWNAMGWYRQAPGKVRELVAAISFTGTSTYYADSVTGRFTISRDNAKNTVYLEMNSLKPEDNAVYYCNNDYRGSQYDYWGQGTQVTVSS”, the “polyreactivity (PSR sort gate)” value was “low polyreactivity”.

For “QVQLVQTGGGVVQAGGSLRLSCAASGRIFNSYPMGWYRQAPGKERELVASINRYGGSTYYADSVKGRFTISRDNAKNTVYLQMYSLNPEDTSVYYCAARGYTSFNTGYGYWGQGTQVSVSS”, the “polyreactivity (PSR sort gate)” value was “high polyreactivity”.

With “QVQLVSSGGGLVLAGGSLRLSCAASGRTIQDNAMGWYTQAPGKERELVAAISWRGGSTNYADSVKGRFTISRDNAKNTVYLQMNSLKPEDTAVYYCNRDPRKYGKLDYWGQGTQVTVSS” the “polyreactivity (PSR sort gate)” value was “low polyreactivity”.

For “QVQLVVSGGGLVQAGGSLRLSCAASGFTFSSNAMGWYRQAPGKECELVAAISTSGASTYYADSVKGRFTISRDNAKNTVYLQMNSLKPADSAVYYCNVPQWHRWYGYPGEDYDYWGQGTQVTVSS”, the “polyreactivity (PSR sort gate)” value was “high polyreactivity”.

In the case of “QVQLVVSGGGLVQAGGSLRLSCAASGIIFSPYALGWYIQAPGKERELVAAISYSGGSTYYADSVKGRFTISRDNAKNTVYLQMNSLKPEDTAVYYCAVVYSYYLAVMGYWDYDYWGQGTQVTVSS”, the “polyreactivity (PSR sort gate)” value was “low polyreactivity”.

With “QVQLVVSGGGLVQAGGSLRLSCAASGITFGRNTMGWYRQAPGKERELVAAIDSGGNTYADSVKGRFTISRDNAKNTVYLQMNSLKPEDTAVYYCAVDGGEFSSYGYWGQGTQVTVSS” the “polyreactivity (PSR sort gate)” value was “low polyreactivity”.

With “QVQLVVSGGGLVQAGGSLRLSCAASGRIFWFNAMGWYRQAPGKEREFVATITYRGGSTYYADSVKGRFTISRDNAKNTVYLQMNSLLPEDTAVYYCAASVSYRRYHRFGYWGQGTQVTVSS” the “polyreactivity (PSR sort gate)” value was “high polyreactivity”.

In the case of “QVQLVVSGGGLVQAGGSLRLSCAASGRIFYTYAMGWYIQAPGKERELVATITDGGSTYYADSVKVRFTISRDNAMNNVYLQMNILKPEDTAVYYCAADAYQWYDWGQGTHVTVSS”, the “polyreactivity (PSR sort gate)” value was “low polyreactivity”.

For “QVQLVVSGGGLVQAGGSLRLSCAASGSIFRFYTMGWYRQAPGKERELVAAISASGGNTYYADSVKGRFTISRDNAKNTVYLQMNSLKPEDTAVYYCARVKFTKYDYWGQGTQVTVSS”, the “polyreactivity (PSR sort gate)” value was “high polyreactivity”.

With “QVQLVVSGGGLVQAGGSLRLSCAASGSIFTRYAMGWYRQAPGKERELVAAISSGGSTYYADSVKGRFTISRDNAKNTVYLQMNSLKPEDTAVYYCAKDSGSYRVGIYEPFPYGYWGQGTQVTVSS” the “polyreactivity (PSR sort gate)” value was “low polyreactivity”.

With “QVQLVYSGGGLVKAGGTLRLSCAASGSTFTPNAMGWYRQAPGKERELVAAINWSDSSTYYADSVKGRFTISRDNAKNTVYLQMNSLIPEDTAVYYCAAAAQYGQLQVPVYYWGEGTQVTVSS” the “polyreactivity (PSR sort gate)” value was “low polyreactivity”.

In the case of “QVQLVYSGGGLVQAGGSLRLSCAASGRTSWIKAMGWYRTAPGKERQLVAAIRYSGRTYYADSVKGRFTISRDNAKNTVYLQMNSLKPEDYGVYYCAAVVGGYETGRYYYWGQGTQVTVSS”, the “polyreactivity (PSR sort gate)” value was “high polyreactivity”.

For “QVQMQESSGGLVHAGGSLRKSCAASGTIYHFHIMGWYRQAPGKEREFVAAIRYGTSTYYADSVKGLFTISRDNEKNTVYVKMNSQKPEDTAVYYCAVYDYLEVYCWYWGQGTQVTVSS”, the “polyreactivity (PSR sort gate)” value was “low polyreactivity”.

For “QVQNVDSGGVLVQAGGSLRLSCEASGRIRYYAMGWYRQAPGKERELVAAISSRGGSTYYADSVKGRFTISRDNAKNTVYLLLNSLKPEDTAVYYCAKGGYWGHGTQVTVSS”, the “polyreactivity (PSR sort gate)” value was “high polyreactivity”.

With “QVQPVESGGGLVQAGGSLRLSCAASGSTLGHNAMGWYRQAPGKERELVAAITSSGGRTYYADSVKGRFTISRDNAKNTVYLQMNSLKPEDTAVYYCAADDTDYPEYDYWGQGTQVTVSS” the “polyreactivity (PSR sort gate)” value was “high polyreactivity”.

With “QVQPVESVGGLVQAGGSLRLSGAASGSIFAVYAMRWYRQPPGNERELVARITRGGGSTYYADSVKGRVTISRDNAKNTVYLQMNSLKPEDTAVYYCAAARRSQYRTWMNYWGQGTQVTVSS” the “polyreactivity (PSR sort gate)” value was “high polyreactivity”.

For “QVQQPESGGGLVQAGGSLRLSCAASGTIFQLTVMGRSRQAPGKERELVASIDYGGNPNYADSVKGRFTISRDNAKNTVYLQMNCLKPEDTAVYYCAASSDSWTTHPYWGQGTQVTVSS”, the “polyreactivity (PSR sort gate)” value was “low polyreactivity”.

In the case of “QVQQQESGGGLVKAGGSLRLSCAASGNNSPRDAMGWYRQAPGEERDLVASNAYSAITYYADGVKGRYTISRDNAKNTVYLQMNSLKPEDTEVYYCAVYQFTYPVFPAYWGQGTQVTVSS”, the “polyreactivity (PSR sort gate)” value was “low polyreactivity”.

In the case of “QVQQQESGGGLVQAGGSLRLSCAASGTIFQLTVMGRYRQAPGNERELVASIDYGGNTNYADSVKGRFTISRDNAKNTVYLQMNILKPEDTAVYYCPASSDSWTTHPYWGQGTQVTLSS”, the “polyreactivity (PSR sort gate)” value was “low polyreactivity”.

In the case of “QVQQQESGGGLVQAGGSLRLSCAASGTIFQLTVMGRYRQAPGQERELVASIDYGGNTNYADSVNGRFTISRDNAKNTVYLQMNSLKPEDTAVYYCAASSDSWTTHPYWGQGTQVTVSS”, the “polyreactivity (PSR sort gate)” value was “low polyreactivity”.

For “QVQQQESGGGLVQAGGSQRLSCAASGTSLNSLCMGWYRQAPGKRREFVASITWGTTTNYAESVKGRFTISRDNANNTVYPQMNSLKPEDTAVYYCAAPPFGDSSYHYWGQGTQVTVSS”, the “polyreactivity (PSR sort gate)” value was “low polyreactivity”.

In the case of “QVQQQESGGGLVQEGGSLRLSCAASGNISPPADMGWYRQAPGKERELVASIGTGGTTNYADSVKGRFTISRDNAKNTVYLQMNSLKPDDTAVFYCAAVRYEYNPYDYWGQGTQVTVSS”, the “polyreactivity (PSR sort gate)” value was “low polyreactivity”.

In the case of “QVQREESGGGLVQAGGSLRLSCAASGFIFDNNAMGWYRQAPGKERELVAAISSADSTNYADSEKGRFSISRDNAKNTVYLQMNSLKPEDTAVYSCNRSQGGEKGWFHYDSWGQGTQVTVSS”, the “polyreactivity (PSR sort gate)” value was “low polyreactivity”.

For “QVQREESGGGLVQAGGSLRLSCAASGITFVLNVMGWYRQAPGKETELLAAISASGGRTYYADSVKGRFTISRDNAKNTVYLQMNSLKPEDTAVYYCNAVLPRYTFRSGVFEYDWGQGTQVTVSS”, the “polyreactivity (PSR sort gate)” value was “high polyreactivity”.
